Consider 2 substances from US20010029034A1.

One data set deals with Trypsin (Sigma). Kind of data set: cell-based or functional assay.
Data set [1] concerns His-tagged Cripto (a TGF-a family member).
For data set [2], the system named is T1, first Kunitz-type domain of the TFPI-3 protein (TFPI-3-1), His-tagged, expressed in E. coli.
T1 sequence: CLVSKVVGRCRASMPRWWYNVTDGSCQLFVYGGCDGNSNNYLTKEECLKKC

Turning to “first Kunitz-type domain of the TFPI-3 protein (TFPI-3-1), His-tagged, expressed in E. coli (from UniProt O43291 38-88)”, in the data set with Trypsin (Sigma), the trypsin activity inhibited, 5.00 dose of TFPI-3-1 turned out to be 60%; the trypsin activity left against buffer only samples, 10 of TFPI-3-1, duplicate samples stood at 7%; the trypsin activity left against the buffer-only control, 10.00 dose of TFPI-3-1 turned out to be 13%.

Consider Trypsin (Sigma), for which, in data set [1], the “trypsin activity on TAME substrate, same concentrations of Cripto as control” value is given as “no trypsin inhibiting activity could be observed”. In data set [2], the “trypsin activity on TAME substrate (absorbance at 247 nm), 1.25 dose of TFPI-3-1” value was “did not appear to inhibit trypsin activity at 1.25 and 2.50 mg doses”; the “trypsin activity on TAME substrate (absorbance at 247 nm), 2.50 dose of TFPI-3-1” value was “did not appear to inhibit trypsin activity at 1.25 and 2.50 mg doses”.
